B1: MI3-41 (scFv)
scFv: MASMTGGQQMGQVTLKESGPGILQPSQTLSLTCSFSGFSLSTSGMGVGWIRQPSGKGLEWLAHIWRDDVKRYNPALKSRLTISKDTSSSQVFLKIASMDTADTATYYCARIYYYGPYFDVWGAGTTVTVSLAKTSRPSGGGGSGRGGSGGAGSGGGGSIEGRDIQLTQPPSFLSASLGDRVSLTCRVSQDIGSSLNWLQQDPDGTIKRLIYAISSIDSGVPKRFSGNRSESDYSLTISSLESEDFVDYYCLQYASTPPTFGGGTKLEIKRDYKDDDDKRTSRVRLHHHHHHHKK
notes: Single-chain antibody translated in wheat germ extract
B2: MI3-15 (scFv)
scFv: MASMTGGQQMGQVTLKESGPGILQPSQTLSLTCSFSGFSLSTSGMGVGWIRQPSGKGLEWLAHIWRDDVKRYNPALKSRLTISKDTSSSQVFLKIASMDTADTATYYCARIYYYGPYFDVWGAGTTVTVSLAKTSRPSGGGGSGRGGSGGAGSGGGGSIEGRDIQLTQPPSFLSASLGDRVSLTCRVSQDIGSSLNWLQQDPDGTIKRLIYAISSIDSGVPKRFSGNRSESDYFLTISSLESEDFVDYYCLQYASTPPTFGGGTKLEIKRDYKDDDDKRTSRVRLHHHHHHHKK
notes: as for B1
B3: MI3-42 (scFv)
scFv: MASMTGGQQKGQVTLKESGPGILQPSQTLSLTCSFSGFSLSTSGMGVGWIRQPSGKGLEWLAHIWRDDVKRYNPALKSRLTISKDTSSSQVFLKIASMDTADTATYYCARIYYYGPYFDVWGAGTTVTVSLAKTSRPSGGGGSGGGGSGGAGSGGGGSIEGRDIQLTQPPSFLSASLGDRVSLTCRVSQDIGSSLNWLQQDPDGTVKRLIYAISSIDSGVPKRFSGNRSESDYSLTISSLESEDFVDYYCLQYASTPPTFGGGTKLEIKRDYKDDDDKRTSRVRLHHHHHHHKK
notes: as for B1
B4: MI3-28 (scFv)
scFv: MASMTGGQQMGQVTLKESGPGILQPSQTLSLTCSFSGFSLSTSGMGVGWIRQPSGKGLEWLAHIWRDDVKRYNPALKSRLTISKDTSSSQVFLKIASMDTADTATYYCPRIYYYGPYFDVWGAGTTVTVSLAKTSRPSGGGGSGGGGSGGAGSGGGGSIEGRDIQLTQPPSFLSASLGDRVSLTCRVSQDIGSSLNWLQQDPDGTIKRLIYAISSIDSGVPKRFSGNRSESDYSLTISSLESEDFVDYYCLQYASTPPTFGGGTKLEIKRDYKDDDDKRTSRVRLHHHHHHHKK
notes: as for B1
B5: MI3-5 (scFv)
scFv: MASMTGGQQMGQVTLKETGPGILQPSQTLSLTCSFSGFSLSTSGMGVGWIRQPSGKGLEWLAHIWRDDVKRYNPALKSRLTISKDTSSSQVFLKIASMDTADTATYYCTRIYYYGPYFDVWGAGTTVTVSLAKTSRPSGGGGSGGGGSGGAGSGGGGSIEGRDIQLTQPPSFFSASLGDRASLTRRVSQDIGSSLNWLQQDPDGTIKRLIYAISSIDSGVPKRFSGNRSESDYSLTISSLESEDFVDYYCLQYASTPSTFGGGTKLEIKRDYKDDDDKRTSRVRLHHHHHHHKK
notes: as for B1
B6: MI3-34 (scFv, V domains shown)
VH: QVTLKESGPGILQPSQTLSLTCSFSGFSLSTSGMGVGWIRQPSGKGLEWLAHIWQDNVKRYNPALKSRLSISKDTSSSQVFLKIASMDTADTATYYCARIYYYGPYFDVWGAWTTVTVSL
notes: as for B1
B7: MI3-26 (scFv)
scFv: MASMTGGQQMGQVTLKECGPGILQPSQTLSLTCSFSGFSLSTSGMSVGWIRQPSGKGLKWLAHIWWNDDKYYNPAPKSRLTISKDTSNNQVFLKIASVVTADTATYYCARIARISYYFDYWGQGTTLTVSSAKTSRPSGGGGSGGGGTGGVGSRGGSSIEGRDIQLTQPPSFLSASLGDRVSLTCRVSQDIGSSLNWLQQDPDGTIKRLIYAISSIDSGVPKRFSGNRSESDYSLTISSLESEDFVDYYCLQYASTPPTFGGGTKLEIKRDYKDDDDKRTSRVRLHHHHHHHKK
notes: as for B1

Biological target: T1, angiotensin II-biotin (UniProt P01019 25-32, biotin attached (angiotensin II-biotin; chemical structure only in Figure 3))
T1 construct: Captured through its biotin on streptavidin (Biacore chip, ELISA plate) or on NeutrAvidin resin (selection); P01019 is the human angiotensinogen precursor, and angiotensin II is only a fragment of it; also called アンジォテンシン II-ピオチン
Assay: SPR (Biacore 3000), angiotensin II-biotin on streptavidin chip

Binding result, binds:
B1, B2, B3, B4, B5, B6, B7
